Measured values reported in patent publication US20200200749A1.

B1: EBOV62 (antibody, V domains shown)
VH: EVQLVESGGGLVQPGGSLRLSCAASGFTFSSYWMSWVRQAPGKGLEWVANIKQDGSAKYYVDSVKGRFTISRDNAKNSLYLQMNSLRAEDTAVYYCARDGLLGISDLLYPIYYFDYWGQGTLVTVSS
VL: DIVMTQSPSSLSASVGDRVTITCRASQNIGSYLNWYQQKPGKAPNLLMYAASSLQSGVPSRFSGSGSGTDFTLTITSLQPEDFATYYCQQSYSIPRTFGQGTQLEIK
B2: BDBV223 (antibody, V domains shown)
VH: QVQLQQWGAGLLKPSETLSLTCAVYGGSFTTTYWNWIRQPPGKGLEWIGEVNYSGNANYNPSLKGRVAISVDTSKNQFSLRLNSVTAADTAIYYCTSRIRSHIAYSWKGDVWGKGTTVTVSS
VL: EIVMTQSPGTLSLSPGERATLSCRASQSVPRNYIGWFQQKPGQAPRLLIYGASSRAAGFPDRFSGSGSGTDFTLTITRLEPEDFAMYYCHQYDRLPYTFGQGTKLEIK

How the values were obtained:
[1] = target: BDBV GP (recombinant, full-length extracellular domain) (BDBV (Bundibugyo ebolavirus)); test: ELISA, GP coated on plate, mAb serially diluted
[2] = target: BDBV GP on virus (BDBV (Bundibugyo ebolavirus)); test: cell-based or functional assay

Binder | EC50 [1] [µg/mL] | IC50, neutralization of BDBV [2] [µg/mL]
B1 | 508 | 
B2 |  | 0.005
